We go through seven molecules from patent US20230256017A1 (published 2023).

Test [1] has as its target T1, CD2 (human, UniProt P06729 25-351).
T1 construct: whole, on cells; also called T-cell surface antigen T11/Leu-5/CD2
T1 sequence (looked up): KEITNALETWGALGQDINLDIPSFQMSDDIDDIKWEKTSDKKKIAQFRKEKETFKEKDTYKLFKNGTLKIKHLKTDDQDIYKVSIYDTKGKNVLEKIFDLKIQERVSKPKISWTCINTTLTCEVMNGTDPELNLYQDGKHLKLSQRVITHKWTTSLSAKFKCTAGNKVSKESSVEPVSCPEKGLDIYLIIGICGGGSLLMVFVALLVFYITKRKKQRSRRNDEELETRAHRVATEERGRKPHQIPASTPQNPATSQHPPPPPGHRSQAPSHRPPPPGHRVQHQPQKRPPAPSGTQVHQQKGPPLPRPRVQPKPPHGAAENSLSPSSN
The test is described as follows: legend of FIG. 55 (CAR transduction of donor T cells by costimulatory molecule targeted); no direct binding assay.

Test [2] addresses T2, BCMA (TNFRSF17) (human, UniProt Q02223 1-184, limits assumed).
T2 construct: Member of a commercial human plasma membrane protein array
T2 sequence (looked up): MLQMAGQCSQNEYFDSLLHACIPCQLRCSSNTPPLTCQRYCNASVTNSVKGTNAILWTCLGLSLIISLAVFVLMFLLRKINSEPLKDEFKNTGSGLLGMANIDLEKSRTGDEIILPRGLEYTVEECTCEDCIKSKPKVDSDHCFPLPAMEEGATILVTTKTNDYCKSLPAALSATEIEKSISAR
In words: commercial human plasma membrane protein array.

B1: Construct 1 (bispecific antibody, human IgG1, kappa)
light: DVVMTQSPPSLLVTLGQPASISCRSSQSLLHSSGNTYLNWLLQRPGQSPQPLIYLVSKLESGVPDRFSGSGSGTDFTLKISGVEAEDVGVYYCMQFTHYPYTFGQGTKLEIKRTVAAPSVFIFPPSDEQLKSGTASVVCLLNNFYPREAKVQWKVDNALQSGNSQESVTEQDSKDSTYSLSSTLTLSKADYEKHKVYACEVTHQGLSSPVTKSFNRGEC
heavy: not shown
notes: Anti-CD3 scFv fused to an anti-CD2 Fab, further fused to a wild type Fc; also called F1
Regarding B1, the binding result in test [1] is “binds”.

B2: Construct 5 (bispecific antibody)
light: B1 light
heavy: not shown
notes: Anti-CD2 Fab fused to an anti-CD3 scFv, further fused to an Fc; Stated ligand valency of 2; also called F5
For B2, the binding result in test [1] was “binds”.

B3: Construct 15 (bispecific antibody, human IgG1, kappa)
light: B1 light
heavy 1: QVQLVQSGAEVQRPGASVKVSCKASGYIFTEYYMYWVRQAPGQGLELVGRIDPEDGSIDYVEKFKKKVTLTADTSSSTAYMELSSLTSDDTAVYYCARGKFNYRFAYWGQGTLVTVSSASTKGPSVFPLAPSSKSTSGGTAALGCLVKDYFPEPVTVSWNSGALTSGVHTFPAVLQSSGLYSLSSVVTVPSSSLGTQTYICNVNHKPSNTKVDKRVEPKSCDKTHTCPPCPAPELLGGPSVFLFPPKPKDTLMISRTPEVTCVVVDVSHEDPEVKFNWYVDGVEVHNAKTKPREEQYNSTYRVVSVLTVLHQDWLNGKEYKCKVSNKALPAPIEKTISKAKGQPREPQVCTLPPSREEMTKNQVSLSCAVKGFYPSDIAVEWESNGQPENNYKTTPPVLDSDGSFFLVSKLTVDKSRWQQGNVFSCSVMHEALHNRFTQKSLSLSPGK
heavy 2: not shown
notes: Anti-CD2 Fab-Fc paired with anti-CD3 scFv-Fc-(G4S)-COMPcc; also called F15
On to B3, for which the binding result in test [1] is “binds”.

B4: Construct 7 (bispecific antibody)
light: B1 light
heavy: not shown
notes: Anti-CD3 scFv fused to an Fc, further fused to an anti-CD2 Fab; Stated ligand valency of 2; also called F7
In the case of B4, the binding result in test [1] is “binds”.

B5: Construct 3 (bispecific antibody, human IgG1, kappa)
light: B1 light
heavy: not shown
notes: Anti-CD2 Fab fused to a wild type Fc, further fused to an anti-CD3 scFv; Stated ligand valency of 2; also called F3
In the case of B5, in test [1], the binding result is listed as “binds”.

B6: Construct 12 (bispecific antibody, human IgG1, kappa)
light: B1 light
heavy 1: B3 heavy 1
heavy 2: not shown
notes: Anti-CD2 Fab-Fc paired with anti-CD3 scFv-Fc-(G4S)3-Matrilin1; also called F12
B6: the binding result in test [1] is recorded as “binds”.

B7: anti-human BCMA single chain antibody variable fragment (scFv) (PI61) (scFv)
scFv: QVQLQESGGGVVQPGRSLRLSCAASGFTFSSYGMHWVRQAPGKGLEWVAVISYDGSNKYYADSVKGRFTISRDNSKNTLYLQMNSLRAEDTAVYYCGGSGYALHDDYYGLDVWGQGTLVTVSSGGGGSGGGGSGGGGSQSALTQPASVSGSPGQSITISCTGTSSDVGGYNYVSWYQQHPGKAPKLMIYDVSNRPSGVSNRFSGSKSGNTASLTISGLQAEDEADYYCSSYTSSSTLYVFGSGTKVTVL
notes: also called PI61 scFv
With B7, the binding result in test [2] is on record as “binds”.
